B1: AXIN1 peptide 237-252 (Axin-1), 16-mer library wild type / PP2A B56 (PPP2R5A B56 domain, residues 1-486) (parent complex)
chain 1: YLPTLNEDEEWKADQD
chain 2: not shown

The variants in this assay derive from B1. As to the kind of experiment: proteomic peptide phage display deep mutational scan (ProP-PD DMS): M13 P8 16-mer library selected against immobilised GST-tagged bait for four days (rounds), NGS of the eluted pools per day and pseudo-replica; bait immobilised on MaxiSorp plates (10 µg), library pre-cleared on GST, 2 h binding at 4 °C, five washes; one round per day, days 1-4; value from days 2 and 3.
Take chain 1 E10T: the screen value is 0.00217 average fractional NGS count over selection days 2 and 3 (reads of this peptide / all reads for the bait, averaged over ….

For the variant chain 1 E10P, the screen value is 0.00206 average fractional NGS count over selection days 2 and 3 (reads of this peptide / all reads for the bait, averaged over ….

On to chain 1 E10V, for which the screen value is 0.0046 average fractional NGS count over selection days 2 and 3 (reads of this peptide / all reads for the bait, averaged over ….

Turning to chain 1 E10M, the screen value was 0.00109 average fractional NGS count over selection days 2 and 3 (reads of this peptide / all reads for the bait, averaged over ….

Take chain 1 E10Y: the screen value was 0.00105 average fractional NGS count over selection days 2 and 3 (reads of this peptide / all reads for the bait, averaged over ….

chain 1 Y1S: the screen value was 0.000305 average fractional NGS count over selection days 2 and 3 (reads of this peptide / all reads for the bait, averaged over ….

Regarding chain 1 Y1W, the screen value was 0.000316 average fractional NGS count over selection days 2 and 3 (reads of this peptide / all reads for the bait, averaged over ….

Take chain 1 P3Q: the screen value was 0.000844 average fractional NGS count over selection days 2 and 3 (reads of this peptide / all reads for the bait, averaged over ….

Regarding chain 1 P3A, the screen value is 0.000353 average fractional NGS count over selection days 2 and 3 (reads of this peptide / all reads for the bait, averaged over ….

Turning to chain 1 P3T, the screen value is 0.000276 average fractional NGS count over selection days 2 and 3 (reads of this peptide / all reads for the bait, averaged over ….

As for chain 1 A13V, the screen value was 0.000342 average fractional NGS count over selection days 2 and 3 (reads of this peptide / all reads for the bait, averaged over ….

In the case of chain 1 A13R, the screen value is 0.000134 average fractional NGS count over selection days 2 and 3 (reads of this peptide / all reads for the bait, averaged over ….

In the case of chain 1 A13L, the screen value is 0.000528 average fractional NGS count over selection days 2 and 3 (reads of this peptide / all reads for the bait, averaged over ….

For chain 1 A13N, the screen value was 0.000152 average fractional NGS count over selection days 2 and 3 (reads of this peptide / all reads for the bait, averaged over ….

With chain 1 A13P, the screen value is 0.00194 average fractional NGS count over selection days 2 and 3 (reads of this peptide / all reads for the bait, averaged over ….

As to chain 1 D14V, the screen value was 0.00647 average fractional NGS count over selection days 2 and 3 (reads of this peptide / all reads for the bait, averaged over ….

Regarding chain 1 D14G, the screen value was 0.00106 average fractional NGS count over selection days 2 and 3 (reads of this peptide / all reads for the bait, averaged over ….

For the variant chain 1 D14T, the screen value was 0.00142 average fractional NGS count over selection days 2 and 3 (reads of this peptide / all reads for the bait, averaged over ….

In the case of chain 1 D14A, the screen value is 0.00375 average fractional NGS count over selection days 2 and 3 (reads of this peptide / all reads for the bait, averaged over ….

On to chain 1 D14N, for which the screen value is 0.00275 average fractional NGS count over selection days 2 and 3 (reads of this peptide / all reads for the bait, averaged over ….

For the variant chain 1 D14S, the screen value was 0.00823 average fractional NGS count over selection days 2 and 3 (reads of this peptide / all reads for the bait, averaged over ….

In the case of chain 1 D14I, the screen value is 0.000947 average fractional NGS count over selection days 2 and 3 (reads of this peptide / all reads for the bait, averaged over ….

For the variant chain 1 D14Y, the screen value was 0.00582 average fractional NGS count over selection days 2 and 3 (reads of this peptide / all reads for the bait, averaged over ….

Regarding chain 1 L5V, the screen value is 0.00197 average fractional NGS count over selection days 2 and 3 (reads of this peptide / all reads for the bait, averaged over ….

Consider chain 1 L5I, for which the screen value was 0.00162 average fractional NGS count over selection days 2 and 3 (reads of this peptide / all reads for the bait, averaged over ….

Take chain 1 L5W: the screen value was 0.000869 average fractional NGS count over selection days 2 and 3 (reads of this peptide / all reads for the bait, averaged over ….

As to chain 1 W11H, the screen value is 0.000184 average fractional NGS count over selection days 2 and 3 (reads of this peptide / all reads for the bait, averaged over ….

chain 1 W11L: the screen value is 0.000123 average fractional NGS count over selection days 2 and 3 (reads of this peptide / all reads for the bait, averaged over ….

For the variant chain 1 W11F, the screen value was 0.0013 average fractional NGS count over selection days 2 and 3 (reads of this peptide / all reads for the bait, averaged over ….

Take chain 1 W11R: the screen value is 0.000154 average fractional NGS count over selection days 2 and 3 (reads of this peptide / all reads for the bait, averaged over ….

Turning to chain 1 W11S, the screen value is 0.000194 average fractional NGS count over selection days 2 and 3 (reads of this peptide / all reads for the bait, averaged over ….

For the variant chain 1 W11T, the screen value was 0.000334 average fractional NGS count over selection days 2 and 3 (reads of this peptide / all reads for the bait, averaged over ….

In the case of chain 1 T4A, the screen value is 0.000216 average fractional NGS count over selection days 2 and 3 (reads of this peptide / all reads for the bait, averaged over ….

Take chain 1 T4P: the screen value was 0.00197 average fractional NGS count over selection days 2 and 3 (reads of this peptide / all reads for the bait, averaged over ….

In the case of chain 1 T4Q, the screen value is 0.00351 average fractional NGS count over selection days 2 and 3 (reads of this peptide / all reads for the bait, averaged over ….

Turning to chain 1 Q15V, the screen value was 0.000515 average fractional NGS count over selection days 2 and 3 (reads of this peptide / all reads for the bait, averaged over ….

As to chain 1 Q15A, the screen value is 0.00159 average fractional NGS count over selection days 2 and 3 (reads of this peptide / all reads for the bait, averaged over ….

Turning to chain 1 Q15T, the screen value is 0.0102 average fractional NGS count over selection days 2 and 3 (reads of this peptide / all reads for the bait, averaged over ….

As for chain 1 Q15N, the screen value is 0.00887 average fractional NGS count over selection days 2 and 3 (reads of this peptide / all reads for the bait, averaged over ….

For chain 1 Q15P, the screen value is 0.000686 average fractional NGS count over selection days 2 and 3 (reads of this peptide / all reads for the bait, averaged over ….

Consider chain 1 Q15G, for which the screen value was 0.00117 average fractional NGS count over selection days 2 and 3 (reads of this peptide / all reads for the bait, averaged over ….

Turning to chain 1 Q15S, the screen value was 0.00176 average fractional NGS count over selection days 2 and 3 (reads of this peptide / all reads for the bait, averaged over ….

Consider chain 1 E9R, for which the screen value is 0.000957 average fractional NGS count over selection days 2 and 3 (reads of this peptide / all reads for the bait, averaged over ….

In the case of chain 1 E9S, the screen value was 0.00105 average fractional NGS count over selection days 2 and 3 (reads of this peptide / all reads for the bait, averaged over ….

Consider chain 1 E9I, for which the screen value was 0.00451 average fractional NGS count over selection days 2 and 3 (reads of this peptide / all reads for the bait, averaged over ….

In the case of chain 1 E9T, the screen value was 0.00244 average fractional NGS count over selection days 2 and 3 (reads of this peptide / all reads for the bait, averaged over ….

As to chain 1 E9P, the screen value is 0.00261 average fractional NGS count over selection days 2 and 3 (reads of this peptide / all reads for the bait, averaged over ….

Consider chain 1 E9Q, for which the screen value was 0.0159 average fractional NGS count over selection days 2 and 3 (reads of this peptide / all reads for the bait, averaged over ….

In the case of chain 1 K12V, the screen value was 0.00977 average fractional NGS count over selection days 2 and 3 (reads of this peptide / all reads for the bait, averaged over ….

Consider chain 1 K12H, for which the screen value is 0.0202 average fractional NGS count over selection days 2 and 3 (reads of this peptide / all reads for the bait, averaged over ….

Take chain 1 K12Q: the screen value is 0.00267 average fractional NGS count over selection days 2 and 3 (reads of this peptide / all reads for the bait, averaged over ….

Turning to chain 1 K12R, the screen value was 0.00196 average fractional NGS count over selection days 2 and 3 (reads of this peptide / all reads for the bait, averaged over ….

chain 1 K12Y: the screen value was 0.00745 average fractional NGS count over selection days 2 and 3 (reads of this peptide / all reads for the bait, averaged over ….

With chain 1 K12N, the screen value was 0.00219 average fractional NGS count over selection days 2 and 3 (reads of this peptide / all reads for the bait, averaged over ….

On to chain 1 D8H, for which the screen value was 0.00852 average fractional NGS count over selection days 2 and 3 (reads of this peptide / all reads for the bait, averaged over ….

Regarding chain 1 D8E, the screen value is 0.000771 average fractional NGS count over selection days 2 and 3 (reads of this peptide / all reads for the bait, averaged over ….

In the case of chain 1 D8F, the screen value was 0.000675 average fractional NGS count over selection days 2 and 3 (reads of this peptide / all reads for the bait, averaged over ….

As to chain 1 D8R, the screen value is 0.000182 average fractional NGS count over selection days 2 and 3 (reads of this peptide / all reads for the bait, averaged over ….

Turning to chain 1 D8Y, the screen value was 0.00257 average fractional NGS count over selection days 2 and 3 (reads of this peptide / all reads for the bait, averaged over ….

As for chain 1 D8G, the screen value is 0.0025 average fractional NGS count over selection days 2 and 3 (reads of this peptide / all reads for the bait, averaged over ….

Regarding chain 1 N6I, the screen value was 0.00196 average fractional NGS count over selection days 2 and 3 (reads of this peptide / all reads for the bait, averaged over ….

In the case of chain 1 N6S, the screen value is 0.0193 average fractional NGS count over selection days 2 and 3 (reads of this peptide / all reads for the bait, averaged over ….

Turning to chain 1 N6W, the screen value was 0.000792 average fractional NGS count over selection days 2 and 3 (reads of this peptide / all reads for the bait, averaged over ….

As for chain 1 N6T, the screen value is 0.00301 average fractional NGS count over selection days 2 and 3 (reads of this peptide / all reads for the bait, averaged over ….

As for chain 1 N6L, the screen value is 0.00123 average fractional NGS count over selection days 2 and 3 (reads of this peptide / all reads for the bait, averaged over ….

The record behind these values is paper PMC12102759 (2025).
